Experimental data reported in patent US20210032299A1 (Eli Lilly, published 2021).
Residue numbers refer to the chain shown, from its start. Starred links: 1 amine or outer side, 2 acyl side, 3 side chain; linkers in the order of their positions; H or OH if unused. Non-standard residues stand in square brackets, D forms with d. Groups on a side chain read outwards from the residue. No end group written: not given here. *: point of attachment. C20 diacid = O=C(O)CCCCCCCCCCCCCCCCCCC(=O)*; C18 diacid = O=C(O)CCCCCCCCCCCCCCCCC(=O)*; αMePhe(2-F) = C[C@](N)(Cc1ccccc1F)C(=O)O; γGlu = O=C(O)[C@H](CCC(=O)[*:2])N[*:1]; AEEA = NCCOCCOCC(=O)O; Aib = CC(C)(N)C(=O)O

T1: human glucose-dependent insulinotropic peptide receptor (human, UniProt P48546 22-466)
T1 sequence (looked up): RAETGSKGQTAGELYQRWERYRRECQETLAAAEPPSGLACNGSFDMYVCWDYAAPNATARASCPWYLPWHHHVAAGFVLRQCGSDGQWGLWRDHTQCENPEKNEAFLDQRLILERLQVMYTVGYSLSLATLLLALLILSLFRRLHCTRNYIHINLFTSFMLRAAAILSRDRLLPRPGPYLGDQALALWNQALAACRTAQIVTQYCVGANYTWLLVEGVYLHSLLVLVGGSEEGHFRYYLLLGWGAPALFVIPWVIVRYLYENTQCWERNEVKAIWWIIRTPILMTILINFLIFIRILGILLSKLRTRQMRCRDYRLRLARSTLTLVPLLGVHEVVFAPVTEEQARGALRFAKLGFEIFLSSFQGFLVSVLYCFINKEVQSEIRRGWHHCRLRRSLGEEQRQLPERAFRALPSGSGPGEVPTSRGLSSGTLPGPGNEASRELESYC

B1: Example 27 (peptide)
peptide: YXEGTFISDYSILLDKKAQXEFVQWLLAGGPSSGAPPPS
modifications: D-Ala2; K17((2-[2-(2-Amino-ethoxy)-ethoxy]-acetyl)2-(γ-Glu)-CO-(CH2)16-CO2H); Aib20; C-terminal amide
B2: Example 29 (peptide)
peptide: B1 peptide with Q24E
modifications: D-Ala2; K17((2-[2-(2-Amino-ethoxy)-ethoxy]-acetyl)2-(γ-Glu)-CO-(CH2)16-CO2H); Aib20; C-terminal amide
B3: Example 28 (peptide)
peptide: B1 peptide with Q24N, A28E
modifications: D-Ala2; K17((2-[2-(2-Amino-ethoxy)-ethoxy]-acetyl)2-(γ-Glu)-CO-(CH2)16-CO2H); Aib20; C-terminal amide
B4: Example 26 (peptide)
peptide: Y[Aib]EGT[αMePhe(2-F)]ISDYSIALDKK([AEEA-AEEA-γGlu-C20 diacid])HQ[Aib]EFVNWLLAGGPSSGAPPPS-NH2
modifications: N-terminus assumed
SMILES: CC[C@H](C)[C@H](NC(=O)[C@H](CO)NC(=O)[C@H](Cc1ccc(O)cc1)NC(=O)[C@H](CC(=O)O)NC(=O)[C@H](CO)NC(=O)[C@@H](NC(=O)[C@](C)(Cc1ccccc1F)NC(=O)[C@@H](NC(=O)CNC(=O)[C@H](CCC(=O)O)NC(=O)C(C)(C)NC(=O)[C@@H](N)Cc1ccc(O)cc1)[C@@H](C)O)[C@@H](C)CC)C(=O)N[C@@H](C)C(=O)N[C@@H](CC(C)C)C(=O)N[C@@H](CC(=O)O)C(=O)N[C@@H](CCCCN)C(=O)N[C@@H](CCCCNC(=O)COCCOCCNC(=O)COCCOCCNC(=O)CC[C@H](NC(=O)CCCCCCCCCCCCCCCCCCC(=O)O)C(=O)O)C(=O)N[C@@H](Cc1c[nH]cn1)C(=O)N[C@@H](CCC(N)=O)C(=O)NC(C)(C)C(=O)N[C@@H](CCC(=O)O)C(=O)N[C@@H](Cc1ccccc1)C(=O)N[C@H](C(=O)N[C@@H](CC(N)=O)C(=O)N[C@@H](Cc1c[nH]c2ccccc12)C(=O)N[C@@H](CC(C)C)C(=O)N[C@@H](CC(C)C)C(=O)N[C@@H](C)C(=O)NCC(=O)NCC(=O)N1CCC[C@H]1C(=O)N[C@@H](CO)C(=O)N[C@@H](CO)C(=O)NCC(=O)N[C@@H](C)C(=O)N1CCC[C@H]1C(=O)N1CCC[C@H]1C(=O)N1CCC[C@H]1C(=O)N[C@@H](CO)C(N)=O)C(C)C
B5: Example 31 (peptide)
peptide: Y[Aib]EGTFISDYSILLDKK([AEEA-AEEA-γGlu-C18 diacid])HQ[Aib]DFVNYLLAAGPSSGAPPPS-NH2
modifications: N-terminus assumed
SMILES: CC[C@H](C)[C@H](NC(=O)[C@H](CO)NC(=O)[C@H](Cc1ccc(O)cc1)NC(=O)[C@H](CC(=O)O)NC(=O)[C@H](CO)NC(=O)[C@@H](NC(=O)[C@H](Cc1ccccc1)NC(=O)[C@@H](NC(=O)CNC(=O)[C@H](CCC(=O)O)NC(=O)C(C)(C)NC(=O)[C@@H](N)Cc1ccc(O)cc1)[C@@H](C)O)[C@@H](C)CC)C(=O)N[C@@H](CC(C)C)C(=O)N[C@@H](CC(C)C)C(=O)N[C@@H](CC(=O)O)C(=O)N[C@@H](CCCCN)C(=O)N[C@@H](CCCCNC(=O)COCCOCCNC(=O)COCCOCCNC(=O)CC[C@H](NC(=O)CCCCCCCCCCCCCCCCC(=O)O)C(=O)O)C(=O)N[C@@H](Cc1c[nH]cn1)C(=O)N[C@@H](CCC(N)=O)C(=O)NC(C)(C)C(=O)N[C@@H](CC(=O)O)C(=O)N[C@@H](Cc1ccccc1)C(=O)N[C@H](C(=O)N[C@@H](CC(N)=O)C(=O)N[C@@H](Cc1ccc(O)cc1)C(=O)N[C@@H](CC(C)C)C(=O)N[C@@H](CC(C)C)C(=O)N[C@@H](C)C(=O)N[C@@H](C)C(=O)NCC(=O)N1CCC[C@H]1C(=O)N[C@@H](CO)C(=O)N[C@@H](CO)C(=O)NCC(=O)N[C@@H](C)C(=O)N1CCC[C@H]1C(=O)N1CCC[C@H]1C(=O)N1CCC[C@H]1C(=O)N[C@@H](CO)C(N)=O)C(C)C
B6: Example 32 (peptide)
peptide: Y[dA]EGTLISDYSILLDKK([AEEA-AEEA-γGlu-C18 diacid])AQ[Aib]DFVNWLLAQGPSSGAPPPS-NH2
modifications: N-terminus assumed
SMILES: CC[C@H](C)[C@H](NC(=O)[C@H](CO)NC(=O)[C@H](Cc1ccc(O)cc1)NC(=O)[C@H](CC(=O)O)NC(=O)[C@H](CO)NC(=O)[C@@H](NC(=O)[C@H](CC(C)C)NC(=O)[C@@H](NC(=O)CNC(=O)[C@H](CCC(=O)O)NC(=O)[C@@H](C)NC(=O)[C@@H](N)Cc1ccc(O)cc1)[C@@H](C)O)[C@@H](C)CC)C(=O)N[C@@H](CC(C)C)C(=O)N[C@@H](CC(C)C)C(=O)N[C@@H](CC(=O)O)C(=O)N[C@@H](CCCCN)C(=O)N[C@@H](CCCCNC(=O)COCCOCCNC(=O)COCCOCCNC(=O)CC[C@H](NC(=O)CCCCCCCCCCCCCCCCC(=O)O)C(=O)O)C(=O)N[C@@H](C)C(=O)N[C@@H](CCC(N)=O)C(=O)NC(C)(C)C(=O)N[C@@H](CC(=O)O)C(=O)N[C@@H](Cc1ccccc1)C(=O)N[C@H](C(=O)N[C@@H](CC(N)=O)C(=O)N[C@@H](Cc1c[nH]c2ccccc12)C(=O)N[C@@H](CC(C)C)C(=O)N[C@@H](CC(C)C)C(=O)N[C@@H](C)C(=O)N[C@@H](CCC(N)=O)C(=O)NCC(=O)N1CCC[C@H]1C(=O)N[C@@H](CO)C(=O)N[C@@H](CO)C(=O)NCC(=O)N[C@@H](C)C(=O)N1CCC[C@H]1C(=O)N1CCC[C@H]1C(=O)N1CCC[C@H]1C(=O)N[C@@H](CO)C(N)=O)C(C)C
B7: Example 30 (peptide)
peptide: Ac-[dY]AEGT[αMePhe(2-F)]ISDYSIALDKK([AEEA-AEEA-γGlu-C18 diacid])HQ[Aib]EFVNYLLAGGPSSGAPPPS-NH2
SMILES: CC[C@H](C)[C@H](NC(=O)[C@H](CO)NC(=O)[C@H](Cc1ccc(O)cc1)NC(=O)[C@H](CC(=O)O)NC(=O)[C@H](CO)NC(=O)[C@@H](NC(=O)[C@](C)(Cc1ccccc1F)NC(=O)[C@@H](NC(=O)CNC(=O)[C@H](CCC(=O)O)NC(=O)[C@H](C)NC(=O)[C@@H](Cc1ccc(O)cc1)NC(C)=O)[C@@H](C)O)[C@@H](C)CC)C(=O)N[C@@H](C)C(=O)N[C@@H](CC(C)C)C(=O)N[C@@H](CC(=O)O)C(=O)N[C@@H](CCCCN)C(=O)N[C@@H](CCCCNC(=O)COCCOCCNC(=O)COCCOCCNC(=O)CC[C@H](NC(=O)CCCCCCCCCCCCCCCCC(=O)O)C(=O)O)C(=O)N[C@@H](Cc1c[nH]cn1)C(=O)N[C@@H](CCC(N)=O)C(=O)NC(C)(C)C(=O)N[C@@H](CCC(=O)O)C(=O)N[C@@H](Cc1ccccc1)C(=O)N[C@H](C(=O)N[C@@H](CC(N)=O)C(=O)N[C@@H](Cc1ccc(O)cc1)C(=O)N[C@@H](CC(C)C)C(=O)N[C@@H](CC(C)C)C(=O)N[C@@H](C)C(=O)NCC(=O)NCC(=O)N1CCC[C@H]1C(=O)N[C@@H](CO)C(=O)N[C@@H](CO)C(=O)NCC(=O)N[C@@H](C)C(=O)N1CCC[C@H]1C(=O)N1CCC[C@H]1C(=O)N1CCC[C@H]1C(=O)N[C@@H](CO)C(N)=O)C(C)C
B8: Example 33 (peptide)
peptide: Ac-[dY]AEGT[αMePhe(2-F)]ISDYSIALDKK([AEEA-AEEA-γGlu-C20 diacid])HQ[Aib]EFVNYLLEGGPSSGAPPPS-NH2
SMILES: CC[C@H](C)[C@H](NC(=O)[C@H](CO)NC(=O)[C@H](Cc1ccc(O)cc1)NC(=O)[C@H](CC(=O)O)NC(=O)[C@H](CO)NC(=O)[C@@H](NC(=O)[C@](C)(Cc1ccccc1F)NC(=O)[C@@H](NC(=O)CNC(=O)[C@H](CCC(=O)O)NC(=O)[C@H](C)NC(=O)[C@@H](Cc1ccc(O)cc1)NC(C)=O)[C@@H](C)O)[C@@H](C)CC)C(=O)N[C@@H](C)C(=O)N[C@@H](CC(C)C)C(=O)N[C@@H](CC(=O)O)C(=O)N[C@@H](CCCCN)C(=O)N[C@@H](CCCCNC(=O)COCCOCCNC(=O)COCCOCCNC(=O)CC[C@H](NC(=O)CCCCCCCCCCCCCCCCCCC(=O)O)C(=O)O)C(=O)N[C@@H](Cc1c[nH]cn1)C(=O)N[C@@H](CCC(N)=O)C(=O)NC(C)(C)C(=O)N[C@@H](CCC(=O)O)C(=O)N[C@@H](Cc1ccccc1)C(=O)N[C@H](C(=O)N[C@@H](CC(N)=O)C(=O)N[C@@H](Cc1ccc(O)cc1)C(=O)N[C@@H](CC(C)C)C(=O)N[C@@H](CC(C)C)C(=O)N[C@@H](CCC(=O)O)C(=O)NCC(=O)NCC(=O)N1CCC[C@H]1C(=O)N[C@@H](CO)C(=O)N[C@@H](CO)C(=O)NCC(=O)N[C@@H](C)C(=O)N1CCC[C@H]1C(=O)N1CCC[C@H]1C(=O)N1CCC[C@H]1C(=O)N[C@@H](CO)C(N)=O)C(C)C

These binders were tested against human glucagon receptor (human, UniProt P47871 26-477) (assay: cell-based or functional assay).
Sequence of human glucagon receptor (P47871 26-477): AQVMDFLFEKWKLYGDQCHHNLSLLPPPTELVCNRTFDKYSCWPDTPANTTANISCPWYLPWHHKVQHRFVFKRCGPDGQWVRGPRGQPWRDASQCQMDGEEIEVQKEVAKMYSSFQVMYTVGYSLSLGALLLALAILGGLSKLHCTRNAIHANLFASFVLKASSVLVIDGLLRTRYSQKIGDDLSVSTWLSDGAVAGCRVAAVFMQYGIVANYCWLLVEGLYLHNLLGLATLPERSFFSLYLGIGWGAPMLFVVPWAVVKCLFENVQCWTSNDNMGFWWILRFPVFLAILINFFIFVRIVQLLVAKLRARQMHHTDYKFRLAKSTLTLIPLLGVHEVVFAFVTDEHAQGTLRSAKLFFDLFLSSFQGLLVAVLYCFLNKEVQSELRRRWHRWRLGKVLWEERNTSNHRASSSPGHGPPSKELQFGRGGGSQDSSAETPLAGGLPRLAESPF

Row | Binder | hGcgR cAMP Rel EC50 [nM]
1 | B1 | > 5000
2 | B2 | > 5000
3 | B3 | > 5000
4 | B4 | > 5000
5 | B5 | 1750
6 | B6 | > 5000
7 | B7 | > 5000
8 | B8 | > 5000

Each binder was assayed against T1, human glucose-dependent insulinotropic … (assay: cell-based or functional assay).

Row | Binder | hGIPR cAMP Rel EC50 [nM]
9 | B1 | 0.0132
10 | B2 | 0.00679
11 | B3 | 0.0118
12 | B4 | 0.00991
13 | B5 | 0.0148
14 | B6 | 0.00469
15 | B7 | 0.00572
16 | B8 | 0.0551

Each binder was assayed against human GLP-1 receptor (human, UniProt P43220 24-463) (assay: cell-based or functional assay).

Row | Binder | hGLP1R cAMP Rel EC50 [nM]
17 | B1 | > 5000
18 | B2 | > 5000
19 | B3 | > 5000
20 | B4 | 5.69
21 | B5 | > 5000
22 | B6 | > 5000
23 | B7 | > 5000
24 | B8 | > 5000
